Results from patent publication US9958461B2, “Detection of protein to protein interactions” (THE GOVERNING COUNCIL OF THE UNIVERSITY OF TORONTO, priority 2013, dated 2018).

Assays:
EGFR-L858R = biological target: T1, EGFR-L858R (Homo sapiens, UniProt P00533, L858R); assay: MaMTH EGFR-interactor screen, lentiviral preys against EGFR-L858R bait (interaction score); format: cell-based; settings: MaMTH interaction score of prey with EGFR-L858R bait
T1 construct: with the advantage of testing full-length integral membrane proteins; (GGGGS)2 linker-Cub (human ubiquitin aa 35-76)-GAL4(1-147)-mNFkB(364-550) (C); expressed in transfected cells
Method in brief: (§1)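 Interaction score is the luciferase fold-change versus averaged negative controls (Fabp5, Pex19, Pex7, GABBR2), with >1 called interacting. Luciferase was measured 24 h after triplicate bait transfection. This followed single-copy prey transduction (MOI ~0.3-0.4) of GAL4UAS-luciferase HEK293T cells and ≥48 h puromycin selection.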

EGFR-Wt [1] = biological target: T2, EGFR-Wt (Homo sapiens, UniProt P00533); assay: MaMTH EGFR-interactor screen, lentiviral preys against EGFR-wildtype bait (interaction score); format: cell-based; settings: MaMTH interaction score of prey with EGFR-Wt bait, mean
T2 construct: with the advantage of testing full-length integral membrane proteins; (GGGGS)2 linker-Cub (human ubiquitin aa 35-76)-GAL4(1-147)-mNFkB(364-550) (C); expressed in transfected cells
Method in brief: as §1

EGFR-Wt [2] = assay: as above; format: cell-based, human; settings: ratio of EGFR-Wt mean to EGFR-L858R mean interaction score
Method in brief: as §1

Row | Molecule | EGFR-L858R mean (EGFR-L858R) | EGFR-Wt mean (EGFR-Wt [1]) | Wt/L858R (EGFR-Wt [2])
1 | MED28 (protein, UniProt Q9H204 1-178, looked up) Mediator of RNA polymerase II …: MAAPLGGMFSGQPPGPPQAPPGLPGQASLLQAAPGAPRPSSSTLVDELESSFEACFASLVSQDYVNGTDQEEIRTGVDQCIQKFLDIARQTECFFLQKRLQLSVQKPEQVIKEDVSELRNELQRKDALVQKHLTKLRHWQQVLEDINVQHKKPADIPQGSLAYLEQASANIPAPLKPT | 1.14 | 0.87 | 0.76
2 | ANKS1A (protein, UniProt Q92625 2-1134, looked up) Ankyrin repeat and SAM …: GKEQELLEAARTGHLPAVEKLLSGKRLSSGFGGGGGGGSGGGGGGSGGGGGGLGSSSHPLSSLLSMWRGPNVNCVDSTGYTPLHHAALNGHKDVVEVLLRNDALTNVADSKGCYPLHLAAWKGDAQIVRLLIHQGPSHTRVNEQNNDNETALHCAAQYGHTEVVKVLLEELTDPTMRNNKFETPLDLAALYGRLEVVKMLLNAHPNLLSCNTKKHTPLHLAARNGHKAVVQVLLDAGMDSNYQTEMGSALHEAALFGKTDVVQILLAAGTDVNIKDNHGLTALDTVRELPSQKSQQIAALIEDHMTGKRSTKEVDKTPPPQPPLISSMDSISQKSQGDVEKAVTELIIDFDANAEEEGPYEALYNAISCHSLDSMASGRSSDQDSTNKEAEAAGVKPAGVRPRERPPPPAKPPPDEEEEDHIDKKYFPLTASEVLSMRPRIHGSAAREEDEHPYELLLTAETKKVVLVDGKTKDHRRSSSSRSQDSAEGQDGQVPEQFSGLLHGSSPVCEVGQDPFQLLCTAGQSHPDGSPQQGACHKASMQLEETGVHAPGASQPSALDQSKRVGYLTGLPTTNSRSHPETLTHTASPHPGGAEEGDRSGARSRAPPTSKPKAELKLSRSLSKSDSDLLTCSPTEDATMGSRSESLSNCSIGKKRLEKSPSFASEWDEIEKIMSSIGEGIDFSQERQKISGLRTLEQSVGEWLESIGLQQYESKLLLNGFDDVHFLGSNVMEEQDLRDIGISDPQHRRKLLQAARSLPKVKALGYDGNSPPSVPSWLDSLGLQDYVHSFLSSGYSSIDTVKNLWELELVNVLKVQLLGHRKRIIASLADRPYEEPPQKPPRFSQLRCQDLLSQTSSPLSQNDSCTGRSADLLLPPGDTGRRRHDSLHDPAAPSRAERFRIQEEHREAKLTLRPPSLAAPYAPVQSWQHQPEKLIFESCGYEANYLGSMLIKDLRGTESTQDACAKMRKSTEHMKKIPTIILSITYKGVKFIDASNKNVIAEHEIRNISCAAQDPEDLCTFAYITKDLQTSHHYCHVFSTVDVNLTYEIILTLGQAFEVAYQLALQAQKSRATGASAAEMIETKSSKPVPKPRVGVRKSALEPPDMDQDAQSHASVSWVVDPKPDSKRSLSTN | 11.76 | 9.27 | 0.79
3 | CRKL (protein, UniProt P46109 1-303, looked up) Crk-like protein: MSSARFDSSDRSAWYMGPVSRQEAQTRLQGQRHGMFLVRDSSTCPGDYVLSVSENSRVSHYIINSLPNRRFKIGDQEFDHLPALLEFYKIHYLDTTTLIEPAPRYPSPPMGSVSAPNLPTAEDNLEYVRTLYDFPGNDAEDLPFKKGEILVIIEKPEEQWWSARNKDGRVGMIPVPYVEKLVRSSPHGKHGNRNSNSYGIPEPAHAYAQPQTTTPLPAVSGSPGAAITPLPSTQNGPVFAKAIQKRVPCAYDKTALALEVGDIVKVTRMNINGQWEGEVNGRKGLFPFTHVKIFDPQNPDENE | 13.65 | 10.25 | 0.75
4 | BCAR3 (protein, UniProt O75815 2-825, looked up) Breast cancer anti-estrogen …: AAGKFASLPRNMPVNHQFPLASSMDLLSSRSPLAEHRPDAYQDVSIHGTLPRKKKGPPPIRSCDDFSHMGTLPHSKSPRQNSPVTQDGIQESPWQDRHGETFTFRDPHLLDPTVEYVKFSKERHIMDRTPEKLKKELEEELLLSSEDLRSHAWYHGRIPRQVSENLVQRDGDFLVRDSLSSPGNFVLTCQWKNLAQHFKINRTVLRLSEAYSRVQYQFEMESFDSIPGLVRCYVGNRRPISQQSGAIIFQPINRTVPLRCLEEHYGTSPGQAREGSLTKGRPDVAKRLSLTMGGVQAREQNLPRGNLLRNKEKSGSQPACLDHMQDRRALSLKAHQSESYLPIGCKLPPQSSGVDTSPCPNSPVFRTGSEPALSPAVVRRVSSDARAGEALRGSDSQLCPKPPPKPCKVPFLKVPSSPSAWLNSEANYCELNPAFATGCGRGAKLPSCAQGSHTELLTAKQNEAPGPRNSGVNYLILDDDDRERPWEPAAAQMEKGQWDKGEFVTPLLETVSSFRPNEFESKFLPPENKPLETAMLKRAKELFTNNDPKVIAQHVLSMDCRVARILGVSEEMRRNMGVSSGLELITLPHGHQLRLDIIERHNTMAIGIAVDILGCTGTLEDRAATLSKIIQVAVELKDSMGDLYSFSALMKALEMPQITRLEKTWTALRHQYTQTAILYEKQLKPFSKLLHEGRESTCVPPNNVSVPLLMPLVTLMERQAVTFEGTDMWEKNDQSCEIMLNHLATARFMAEAADSYRMNAERILAGFQPDEEMNEICKTEFQMRLLWGSKGAQVNQTERYEKFNQILTALSRKLEPPPVKQAEL | 1.06 | 0.79 | 0.75

Now from value to molecule, other results behind:

Row | EGFR-L858R mean (EGFR-L858R) | EGFR-Wt mean (EGFR-Wt [1]) | Molecule | Wt/L858R (EGFR-Wt [2])
5 | 1.83 | 0.28 | SOS2 (protein, UniProt Q07890 1-1332, looked up) Son of sevenless homolog 2: MQQAPQPYEFFSEENSPKWRGLLVSALRKVQEQVHPTLSANEESLYYIEELIFQLLNKLCMAQPRTVQDVEERVQKTFPHPIDKWAIADAQSAIEKRKRRNPLLLPVDKIHPSLKEVLGYKVDYHVSLYIVAVLEYISADILKLAGNYVFNIRHYEISQQDIKVSMCADKVLMDMFDQDDIGLVSLCEDEPSSSGELNYYDLVRTEIAEERQYLRELNMIIKVFREAFLSDRKLFKPSDIEKIFSNISDIHELTVKLLGLIEDTVEMTDESSPHPLAGSCFEDLAEEQAFDPYETLSQDILSPEFHEHFNKLMARPAVALHFQSIADGFKEAVRYVLPRLMLVPVYHCWHYFELLKQLKACSEEQEDRECLNQAITALMNLQGSMDRIYKQYSPRRRPGDPVCPFYSHQLRSKHLAIKKMNEIQKNIDGWEGKDIGQCCNEFIMEGPLTRIGAKHERHIFLFDGLMISCKPNHGQTRLPGYSSAEYRLKEKFVMRKIQICDKEDTCEHKHAFELVSKDENSIIFAAKSAEEKNNWMAALISLHYRSTLDRMLDSVLLKEENEQPLRLPSPEVYRFVVKDSEENIVFEDNLQSRSGIPIIKGGTVVKLIERLTYHMYADPNFVRTFLTTYRSFCKPQELLSLLIERFEIPEPEPTDADKLAIEKGEQPISADLKRFRKEYVQPVQLRILNVFRHWVEHHFYDFERDLELLERLESFISSVRGKAMKKWVESIAKIIRRKKQAQANGVSHNITFESPPPPIEWHISKPGQFETFDLMTLHPIEIARQLTLLESDLYRKVQPSELVGSVWTKEDKEINSPNLLKMIRHTTNLTLWFEKCIVEAENFEERVAVLSRIIEILQVFQDLNNFNGVLEIVSAVNSVSVYRLDHTFEALQERKRKILDEAVELSQDHFKKYLVKLKSINPPCVPFFGIYLTNILKTEEGNNDFLKKKGKDLINFSKRRKVAEITGEIQQYQNQPYCLRIEPDMRRFFENLNPMGSASEKEFTDYLFNKSLEIEPRNCKQPPRFPRKSTFSLKSPGIRPNTGRHGSTSGTLRGHPTPLEREPCKISFSRIAETELESTVSAPTSPNTPSTPPVSASSDLSVFLDVDLNSSCGSNSIFAPVLLPHSKSFFSSCGSLHKLSEEPLIPPPLPPRKKFDHDASNSKGNMKSDDDPPAIPPRQPPPPKVKPRVPVPTGAFDGPLHSPPPPPPRDPLPDTPPPVPLRPPEHFINCPFNLQPPPLGHLHRDSDWLRDISTCPNSPSTPPSTPSPRVPRRCYVLSSSQNNLAHPPAPPVPPRQNSSPHLPKLPPKTYKRELSHPPLYRLPLLENAETPQ | 0.15
6 | 2.92 | 2.33 | SH2D3C (protein, UniProt Q8N5H7 1-860, looked up) SH2 domain-containing protein …: MTEGTKKTSKKFKFFKFKGFGSLSNLPRSFTLRRSSASISRQSHLEPDTFEATQDDMVTVPKSPPAYARSSDMYSHMGTMPRPSIKKAQNSQAARQAQEAGPKPNLVPGGVPDPPGLEAAKEVMVKATGPLEDTPAMEPNPSAVEVDPIRKPEVPTGDVEEERPPRDVHSERAAGEPEAGSDYVKFSKEKYILDSSPEKLHKELEEELKLSSTDLRSHAWYHGRIPREVSETLVQRNGDFLIRDSLTSLGDYVLTCRWRNQALHFKINKVVVKAGESYTHIQYLFEQESFDHVPALVRYHVGSRKAVSEQSGAIIYCPVNRTFPLRYLEASYGLGQGSSKPASPVSPSGPKGSHMKRRSVTMTDGLTADKVTRSDGCPTSTSLPRPRDSIRSCALSMDQIPDLHSPMSPISESPSSPAYSTVTRVHAAPAAPSATALPASPVARRSSEPQLCPGSAPKTHGESDKGPHTSPSHTLGKASPSPSLSSYSDPDSGHYCQLQPPVRGSREWAATETSSQQARSYGERLKELSENGAPEGDWGKTFTVPIVEVTSSFNPATFQSLLIPRDNRPLEVGLLRKVKELLAEVDARTLARHVTKVDCLVARILGVTKEMQTLMGVRWGMELLTLPHGRQLRLDLLERFHTMSIMLAVDILGCTGSAEERAALLHKTIQLAAELRGTMGNMFSFAAVMGALDMAQISRLEQTWVTLRQRHTEGAILYEKKLKPFLKSLNEGKEGPPLSNTTFPHVLPLITLLECDSAPPEGPEPWGSTEHGVEVVLAHLEAARTVAHHGGLYHTNAEVKLQGFQARPELLEVFSTEFQMRLLWGSQGASSSQARRYEKFDKVLTALSHKLEPAVRSSEL | 0.80
